Data reported in US20020058247A1 (TRIPEP, published 2002).

Molecular target: T1, Full length recombinant HBcAg (rHBcAg) encompassing residues 1-183 (hepatitis B virus, UniProt P03146 1-183)
T1 construct: range 1-183; also called hepatitis B virus core antigen
Assay: EIA, support-bound peptide, HBcAg 5 ug/ml

T1 sequence (P03146 whole entry, the tested form may be a part): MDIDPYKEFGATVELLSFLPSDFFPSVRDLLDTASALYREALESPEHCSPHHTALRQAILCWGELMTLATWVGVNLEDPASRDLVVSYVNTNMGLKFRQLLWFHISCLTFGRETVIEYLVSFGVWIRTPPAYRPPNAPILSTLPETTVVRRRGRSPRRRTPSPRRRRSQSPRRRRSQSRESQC

Q: Which “OD at 490 nm” value does the source give for ISCRASQSVSTSSYSYMHWY [ISCRASQSVSTSSYSYMHWY (SEQ. ID. No. 17)] here?
A: 1.94 OD

Q: VKPGASVKLSCKASGYIFTS (also called Peptide # 2; Pept. #2) [VKPGASVKLSCKASGYIFTS (SEQ. ID. No. 5)] was tested. Which “OD at 490 nm” value did it give?
A: 3.26 OD

Molecular target: T1, Full length recombinant HBcAg (rHBcAg) …
Assay: EIA, support-bound peptide, HBcAg 10 ug/ml

Q: For ISCRASQSVSTSSYSYMHWY [ISCRASQSVSTSSYSYMHWY (SEQ. ID. No. 17)], which OD is on record?
A: 1.15 OD

Q: LAVSLGQRATISCRASQSVS [LAVSLGQRATISCRASQSVS (SEQ. ID. No. 16)] was tested. Which OD did it give?
A: 0.872 OD

Q: With VKPGASVKLSCKASGYIFTS (also called Peptide # 2; Pept. #2) [VKPGASVKLSCKASGYIFTS (SEQ. ID. No. 5)] as the binder, how does the OD read?
A: 1.69 OD

Q: With VKPGASVKISCKASGYSFTG (also called Peptide # 25) [VKPGASVKISCKASGYSFTG (SEQ. ID. No. 28)] as the binder, how does the OD read?
A: 0.897 OD

Q: CKASGYSFTGYNMNWVKQSH (also called Peptide # 26) [CKASGYSFTGYNMNWVKQSH (SEQ. ID. No. 29)] was tested. Which OD did it give?
A: 0.601 OD

Molecular target: T2, truncated recombinant form of HBeAg containing nine residues of pre-core and the 150 first residues of HBcAg (hepatitis B virus, UniProt P03146 1-150)
T2 construct: domain: nine residues of pre-core;range 1-150; also called hepatitis B virus e antigen
T2 sequence (P03146 1-150): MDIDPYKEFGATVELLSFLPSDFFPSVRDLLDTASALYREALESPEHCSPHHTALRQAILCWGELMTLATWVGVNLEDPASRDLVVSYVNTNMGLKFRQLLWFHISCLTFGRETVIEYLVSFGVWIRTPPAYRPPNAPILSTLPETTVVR
Assay: EIA, support-bound peptide, HBeAg 10 ug/ml

Q: How did the OD turn out when ISCRASQSVSTSSYSYMHWY [ISCRASQSVSTSSYSYMHWY (SEQ. ID. No. 17)] was run?
A: 0.246 OD

Q: For LAVSLGQRATISCRASQSVS [LAVSLGQRATISCRASQSVS (SEQ. ID. No. 16)], which OD is on record?
A: 0.06 OD

Q: How did the OD turn out when VKPGASVKLSCKASGYIFTS (also called Peptide # 2; Pept. #2) [VKPGASVKLSCKASGYIFTS (SEQ. ID. No. 5)] was run?
A: 0.222 OD

Q: How did the OD turn out when VKPGASVKISCKASGYSFTG (also called Peptide # 25) [VKPGASVKISCKASGYSFTG (SEQ. ID. No. 28)] was run?
A: 0.096 OD

Q: With CKASGYSFTGYNMNWVKQSH (also called Peptide # 26) [CKASGYSFTGYNMNWVKQSH (SEQ. ID. No. 29)] as the binder, how does the OD read?
A: 0.091 OD

Molecular target: T3, non-structural 3 protein (NS3) of the hepatitis C virus (HCV) (hepatitis C virus)
T3 construct: Control antigen; also called HCV NS3
Assay: EIA, support-bound peptide, HCV NS3 control

Q: ISCRASQSVSTSSYSYMHWY [ISCRASQSVSTSSYSYMHWY (SEQ. ID. No. 17)] was tested. Which “OD at 405 nm” value did it give?
A: 0.156 OD

Q: With LAVSLGQRATISCRASQSVS [LAVSLGQRATISCRASQSVS (SEQ. ID. No. 16)] as the binder, how does the “OD at 405 nm” value read?
A: 0.128 OD

Q: Which “OD at 405 nm” value does the source give for VKPGASVKLSCKASGYIFTS (also called Peptide # 2; Pept. #2) [VKPGASVKLSCKASGYIFTS (SEQ. ID. No. 5)] here?
A: 0.269 OD

Q: For VKPGASVKISCKASGYSFTG (also called Peptide # 25) [VKPGASVKISCKASGYSFTG (SEQ. ID. No. 28)], which “OD at 405 nm” value is on record?
A: 0.097 OD

Q: For CKASGYSFTGYNMNWVKQSH (also called Peptide # 26) [CKASGYSFTGYNMNWVKQSH (SEQ. ID. No. 29)], which “OD at 405 nm” value is on record?
A: 0.053 OD

Molecular target: T1, Full length recombinant HBcAg (rHBcAg) …
Assay: EIA, support-bound peptide, HBcAg 2.5 ug/ml

Q: ISCRASQSVSTSSYSYMHWY [ISCRASQSVSTSSYSYMHWY (SEQ. ID. No. 17)] was tested. Which OD did it give?
A: 0.252 OD

Q: With LAVSLGQRATISCRASQSVS [LAVSLGQRATISCRASQSVS (SEQ. ID. No. 16)] as the binder, how does the OD read?
A: 0.195 OD

Q: How did the OD turn out when VKPGASVKLSCKASGYIFTS (also called Peptide # 2; Pept. #2) [VKPGASVKLSCKASGYIFTS (SEQ. ID. No. 5)] was run?
A: 0.374 OD

Q: How did the OD turn out when VKPGASVKISCKASGYSFTG (also called Peptide # 25) [VKPGASVKISCKASGYSFTG (SEQ. ID. No. 28)] was run?
A: 0.159 OD

Q: CKASGYSFTGYNMNWVKQSH (also called Peptide # 26) [CKASGYSFTGYNMNWVKQSH (SEQ. ID. No. 29)] was tested. Which OD did it give?
A: 0.101 OD

Molecular target: T1, Full length recombinant HBcAg (rHBcAg) …
Assay: EIA, support-bound peptide, HBcAg 0.2 ug/well

Q: Which “OD at 405 nm” value does the source give for ISCRASQSVSTSSYSYMHWY [ISCRASQSVSTSSYSYMHWY (SEQ. ID. No. 17)] here?
A: 0.449 OD

Q: Which “OD at 405 nm” value does the source give for LAVSLGQRATISCRASQSVS [LAVSLGQRATISCRASQSVS (SEQ. ID. No. 16)] here?
A: 0.807 OD

Q: Which “OD at 405 nm” value does the source give for VKPGASVKLSCKASGYIFTS (also called Peptide # 2; Pept. #2) [VKPGASVKLSCKASGYIFTS (SEQ. ID. No. 5)] here?
A: 1.15 OD

Q: How did the “OD at 405 nm” value turn out when VKPGASVKISCKASGYSFTG (also called Peptide # 25) [VKPGASVKISCKASGYSFTG (SEQ. ID. No. 28)] was run?
A: 0.845 OD

Q: CKASGYSFTGYNMNWVKQSH (also called Peptide # 26) [CKASGYSFTGYNMNWVKQSH (SEQ. ID. No. 29)] was tested. Which “OD at 405 nm” value did it give?
A: 0.356 OD

Molecular target: T1, Full length recombinant HBcAg (rHBcAg) …
Assay: EIA, peptide coated 100 ug/ml, HBcAg 10 ug/ml

Q: Which OD does the source give for ISCRASQSVSTSSYSYMHWY [ISCRASQSVSTSSYSYMHWY (SEQ. ID. No. 17)] here?
A: 0.641 OD

Q: For LAVSLGQRATISCRASQSVS [LAVSLGQRATISCRASQSVS (SEQ. ID. No. 16)], which OD is on record?
A: 0.9 OD

Q: How did the OD turn out when VKPGASVKLSCKASGYIFTS (also called Peptide # 2; Pept. #2) [VKPGASVKLSCKASGYIFTS (SEQ. ID. No. 5)] was run?
A: 1.45 OD

Q: For VKPGASVKISCKASGYSFTG (also called Peptide # 25) [VKPGASVKISCKASGYSFTG (SEQ. ID. No. 28)], which OD is on record?
A: 1.01 OD

Q: CKASGYSFTGYNMNWVKQSH (also called Peptide # 26) [CKASGYSFTGYNMNWVKQSH (SEQ. ID. No. 29)] was tested. Which OD did it give?
A: 0.422 OD

Molecular target: T1, Full length recombinant HBcAg (rHBcAg) …
Assay: EIA, peptide coated 6.25 ug/ml, HBcAg 10 ug/ml

Q: For ISCRASQSVSTSSYSYMHWY [ISCRASQSVSTSSYSYMHWY (SEQ. ID. No. 17)], which OD is on record?
A: 0.63 OD

Q: LAVSLGQRATISCRASQSVS [LAVSLGQRATISCRASQSVS (SEQ. ID. No. 16)] was tested. Which OD did it give?
A: 0.388 OD

Q: For VKPGASVKLSCKASGYIFTS (also called Peptide # 2; Pept. #2) [VKPGASVKLSCKASGYIFTS (SEQ. ID. No. 5)], which OD is on record?
A: 0.597 OD

Q: With VKPGASVKISCKASGYSFTG (also called Peptide # 25) [VKPGASVKISCKASGYSFTG (SEQ. ID. No. 28)] as the binder, how does the OD read?
A: 0.298 OD

Q: Which OD does the source give for CKASGYSFTGYNMNWVKQSH (also called Peptide # 26) [CKASGYSFTGYNMNWVKQSH (SEQ. ID. No. 29)] here?
A: 0.156 OD

Molecular target: T1, Full length recombinant HBcAg (rHBcAg) …
Assay: EIA, peptide coated 3.125 ug/ml, HBcAg 10 ug/ml

Q: For ISCRASQSVSTSSYSYMHWY [ISCRASQSVSTSSYSYMHWY (SEQ. ID. No. 17)], which OD is on record?
A: 0.413 OD

Q: With LAVSLGQRATISCRASQSVS [LAVSLGQRATISCRASQSVS (SEQ. ID. No. 16)] as the binder, how does the OD read?
A: 0.355 OD

Q: VKPGASVKLSCKASGYIFTS (also called Peptide # 2; Pept. #2) [VKPGASVKLSCKASGYIFTS (SEQ. ID. No. 5)] was tested. Which OD did it give?
A: 0.333 OD

Q: For VKPGASVKISCKASGYSFTG (also called Peptide # 25) [VKPGASVKISCKASGYSFTG (SEQ. ID. No. 28)], which OD is on record?
A: 0.217 OD

Q: For CKASGYSFTGYNMNWVKQSH (also called Peptide # 26) [CKASGYSFTGYNMNWVKQSH (SEQ. ID. No. 29)], which OD is on record?
A: 0.171 OD

Molecular target: T1, Full length recombinant HBcAg (rHBcAg) …
Assay: competition EIA, peptide added to HBcAg before mAb 4-2 (competitor); OD of bound mAb

Q: Which “OD at 490 nm” value does the source give for VKPGASVKLSCKASGYIFTS (also called Peptide # 2; Pept. #2) [VKPGASVKLSCKASGYIFTS (SEQ. ID. No. 5)] here?
A: 0.453 OD

Molecular target: T1, Full length recombinant HBcAg (rHBcAg) …
Assay: competition EIA, HBcAg coated 1 ug/ml, peptide 200 ug/ml before mAb 4-2 (competitor); OD of bound mAb

Q: For ISCRASQSVSTSSYSYMHWY [ISCRASQSVSTSSYSYMHWY (SEQ. ID. No. 17)], which “OD at 490 nm” value is on record?
A: 0.305 OD

Q: With LAVSLGQRATISCRASQSVS [LAVSLGQRATISCRASQSVS (SEQ. ID. No. 16)] as the binder, how does the “OD at 490 nm” value read?
A: 0.299 OD

Q: Which “OD at 490 nm” value does the source give for VKPGASVKLSCKASGYIFTS (also called Peptide # 2; Pept. #2) [VKPGASVKLSCKASGYIFTS (SEQ. ID. No. 5)] here?
A: 0.078 OD

Q: How did the “OD at 490 nm” value turn out when VKPGASVKISCKASGYSFTG (also called Peptide # 25) [VKPGASVKISCKASGYSFTG (SEQ. ID. No. 28)] was run?
A: 0.173 OD

Q: How did the “OD at 490 nm” value turn out when CKASGYSFTGYNMNWVKQSH (also called Peptide # 26) [CKASGYSFTGYNMNWVKQSH (SEQ. ID. No. 29)] was run?
A: 0.201 OD

Molecular target: T1, Full length recombinant HBcAg (rHBcAg) …
Assay: competition EIA, HBcAg coated 5 ug/ml, peptide 100 ug/ml together with mAb 4-2 (competitor); OD of bound mAb

Q: Which “OD at 490 nm” value does the source give for ISCRASQSVSTSSYSYMHWY [ISCRASQSVSTSSYSYMHWY (SEQ. ID. No. 17)] here?
A: 1.46 OD

Q: How did the “OD at 490 nm” value turn out when LAVSLGQRATISCRASQSVS [LAVSLGQRATISCRASQSVS (SEQ. ID. No. 16)] was run?
A: 0.891 OD

Q: For VKPGASVKLSCKASGYIFTS (also called Peptide # 2; Pept. #2) [VKPGASVKLSCKASGYIFTS (SEQ. ID. No. 5)], which “OD at 490 nm” value is on record?
A: 0.194 OD

Q: Which “OD at 490 nm” value does the source give for VKPGASVKISCKASGYSFTG (also called Peptide # 25) [VKPGASVKISCKASGYSFTG (SEQ. ID. No. 28)] here?
A: 0.91 OD

Q: With CKASGYSFTGYNMNWVKQSH (also called Peptide # 26) [CKASGYSFTGYNMNWVKQSH (SEQ. ID. No. 29)] as the binder, how does the “OD at 490 nm” value read?
A: 0.947 OD
